Assay results as given in IntAct's records for PubMed 29892012.

B1: Genetic suppressor element 1 (Homo sapiens), Q14687 (parent)
chain: MKGMSHEPKSPSLGMLSTATRTTATVNPLTPSPLNGALVPSGSPATSSALSAQAAPSSSFAAALRKLAKQAEEPRGSSLSSESSPVSSPATNHSSPASTPKRVPMGPIIVPPGGHSVPSTPPVVTIAPTKTVNGVWRSESRQDAGSRSSSGGRERLIVEPPLPQEKAGGPAIPSHLLSTPYPFGLSPSSVVQDSRFPPLNLQRPVHHVVPPSTVTEDYLRSFRPYHTTDDLRMSSLPPLGLDPATAAAYYHPSYLAPHPFPHPAFRMDDSYCLSALRSPFYPIPTPGSLPPLHPSAMHLHLSGVRYPPELSHSSLAALHSERMSGLSAERLQMDEELRREREREREREREREADREREKEREREREKEREQEKEREREKERERELERQREQRAREKELLAAKALEPSFLPVAELHGLRGHATEERGKPSEQLTPTRAEKLKDAGLQAPKPVQHPLHPVPTPHHTVPSLISNHGIFSLPSSSAATALLIQRTNEEEKWLARQRRLRQEKEDRQSQVSEFRQQVLEQHLDMGRPPVPAEAEHRPESTTRPGPNRHEPGGRDPPQHFGGPPPLISPKPQLHAAPTALWNPVSLMDNTLETRRAESHSLHSHPAAFEPSRQAAVPLVKVERVFCPEKAEEGPRKREPAPLDKYQPPPPPPREGGSLEHQPFLPGPGPFLAELEKSTQTILGQQRASLPQAATFGELSGPLKPGSPYRPPVPRAPDPAYIYDEFLQQRRRLVSKLDLEERRRREAQEKGYYYDLDDSYDESDEEEVRAHLRCVAEQPPLKLDTSSEKLEFLQLFGLTTQQQKEELVAQKRRKRRRMLRERSPSPPTIQSKRQTPSPRLALSTRYSPDEMNNSPNFEEKKKFLTIFNLTHISAEKRKDKERLVEMLRAMKQKALSAAVADSLTNSPRDSPAVSLSEPATQQASLDVEKPVGVAASLSDIPKAAEPGKLEQVRPQELSRVQELAPASGEKARLSEAPGGKKSLSMLHYIRGAAPKDIPVPLSHSTNGKSKPWEPFVAEEFAHQFHESVLQSTQKALQKHKGSVAVLSAEQNHKVDTSVHYNIPELQSSSRAPPPQHNGQQEPPTARKGPPTQELDRDSEEEEEEDDEDGEDEEEVPKRKWQGIEAVFEAYQEHIEEQNLERQVLQTQCRRLEARHYSLSLTAEQLSHSVAELRSQKQKMVSERERLQAELDHLRKCLALPAMHWPRGYLKGYPR
partner: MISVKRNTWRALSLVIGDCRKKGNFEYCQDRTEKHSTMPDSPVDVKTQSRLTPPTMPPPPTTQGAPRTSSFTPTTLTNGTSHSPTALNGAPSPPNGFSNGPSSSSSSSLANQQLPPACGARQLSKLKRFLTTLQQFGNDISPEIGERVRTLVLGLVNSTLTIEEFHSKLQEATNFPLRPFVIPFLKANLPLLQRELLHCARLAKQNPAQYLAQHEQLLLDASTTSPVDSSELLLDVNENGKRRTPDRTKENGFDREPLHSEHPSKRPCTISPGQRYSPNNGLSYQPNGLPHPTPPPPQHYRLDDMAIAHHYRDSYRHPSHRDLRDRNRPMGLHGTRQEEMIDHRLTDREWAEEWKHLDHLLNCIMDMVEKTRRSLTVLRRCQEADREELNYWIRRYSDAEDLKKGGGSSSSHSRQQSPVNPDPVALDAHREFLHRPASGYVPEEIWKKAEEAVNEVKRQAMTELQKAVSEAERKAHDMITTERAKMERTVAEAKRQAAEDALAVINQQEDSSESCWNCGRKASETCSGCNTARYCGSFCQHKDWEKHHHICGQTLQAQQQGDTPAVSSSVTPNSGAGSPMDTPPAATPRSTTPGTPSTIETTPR
B2: Ligand of Numb protein X 2 (Homo sapiens), Q8N448 (parent)
chain: MGTTSDEMVSVEQTSSSSLNPLCFECGQQHWTRENHLYNYQNEVDDDLVCHICLQPLLQPLDTPCGHTFCYKCLRNFLQEKDFCPLDRKRLHFKLCKKSSILVHKLLDKLLVLCPFSSVCKDVMQRCDLEAHLKNRCPGASHRRVALERRKTSRTQAEIENENGPTLLDPAGTLSPEADCLGTGAVPVERHLTSASLSTWSEEPGLDNPAFEESAGADTTQQPLSLPEGEITTIEIHRSNPYIQLGISIVGGNETPLINIVIQEVYRDGVIARDGRLLAGDQILQVNNYNISNVSHNYARAVLSQPCNTLHLTVLRERRFGNRAHNHSDSNSPREEIFQVALHKRDSGEQLGIKLVRRTDEPGVFILDLLEGGLAAQDGRLSSNDRVLAINGHDLKYGTPELAAQIIQASGERVNLTIARPGKPQPGNTIREAGNHSSSSQHHTPPPYYSRPSSHKDLTQCVTCQEKHITVKKEPHESLGMTVAGGRGSKSGELPIFVTSVPPHGCLARDGRIKRGDVLLNINGIDLTNLSHSEAVAMLKASAASPAVALKALEVQIVEEATQNAEEQPSTFSENEYDASWSPSWVMWLGLPSTLHSCHDIVLRRSYLGSWGFSIVGGYEENHTNQPFFIKTIVLGTPAYYDGRLKCGDMIVAVNGLSTVGMSHSALVPMLKEQRNKVTLTVICWPGSLV
partner: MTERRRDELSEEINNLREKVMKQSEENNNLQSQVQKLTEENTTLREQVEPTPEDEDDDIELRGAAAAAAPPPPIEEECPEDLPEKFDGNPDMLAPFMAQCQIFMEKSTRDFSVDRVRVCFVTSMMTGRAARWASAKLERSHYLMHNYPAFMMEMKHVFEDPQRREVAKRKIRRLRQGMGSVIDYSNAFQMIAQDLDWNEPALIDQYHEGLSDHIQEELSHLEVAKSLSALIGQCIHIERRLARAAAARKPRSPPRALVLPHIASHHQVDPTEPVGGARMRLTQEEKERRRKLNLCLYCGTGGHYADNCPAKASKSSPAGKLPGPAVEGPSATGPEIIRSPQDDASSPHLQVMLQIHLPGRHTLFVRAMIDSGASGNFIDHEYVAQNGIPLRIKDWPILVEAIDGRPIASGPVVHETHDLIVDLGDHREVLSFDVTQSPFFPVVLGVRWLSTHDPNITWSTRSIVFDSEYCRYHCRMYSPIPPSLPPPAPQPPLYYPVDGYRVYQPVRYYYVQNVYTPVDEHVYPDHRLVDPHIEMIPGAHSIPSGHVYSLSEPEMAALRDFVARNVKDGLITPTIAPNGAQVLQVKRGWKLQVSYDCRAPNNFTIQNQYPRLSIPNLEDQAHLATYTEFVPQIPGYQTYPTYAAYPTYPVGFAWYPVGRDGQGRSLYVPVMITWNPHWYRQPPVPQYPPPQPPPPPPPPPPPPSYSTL
B3: Cysteine/serine-rich nuclear protein 2 (Homo sapiens), Q9H175 (parent)
chain: MDAFTGSGLKRKFDDVDVGSSVSNSDDEISSSDSADSCDSLNPPTTASFTPTSILKRQKQLRRKNVRFDQVTVYYFARRQGFTSVPSQGGSSLGMAQRHNSVRSYTLCEFAQEQEVNHREILREHLKEEKLHAKKMKLTKNGTVESVEADGLTLDDVSDEDIDVENVEVDDYFFLQPLPTKRRRALLRASGVHRIDAEEKQELRAIRLSREECGCDCRLYCDPEACACSQAGIKCQVDRMSFPCGCSRDGCGNMAGRIEFNPIRVRTHYLHTIMKLELESKRQVSRPAAPDEEPSPTASCSLTGAQGSETQDFQEFIAENETAVMHLQSAEELERLKAEEDSSGSSASLDSSIESLGVCILEEPLAVPEELCPGLTAPILIQAQLPPGSSVLCFTENSDHPTASTVNSPSYLNSGPLVYYQVEQRPVLGVKGEPGTEEGSASFPKEKDLNVFSLPVTSLVACSSTDPAALCKSEVGKTPTLEALLPEDCNPEEPENEDFHPSWSPSSLPFRTDNEEGCGMVKTSQQNEDRPPEDSSLELPLAV
B4: Liprin-alpha-1 (Homo sapiens), Q13136 (parent)
chain: MMCEVMPTISEAEGPPGGGGGHGSGSPSQPDADSHFEQLMVSMLEERDRLLDTLRETQETLALTQGKLHEVGHERDSLQRQLNTALPQEFAALTKELNVCREQLLEREEEIAELKAERNNTRLLLEHLECLVSRHERSLRMTVVKRQAQSPAGVSSEVEVLKALKSLFEHHKALDEKVRERLRVALERCSLLEEELGATHKELMILKEQNNQKKTLTDGVLDINHEQENTPSTSGKRSSDGSLSHEEDLAKVIELQEIISKQSREQSQMKERLASLSSHVTELEEDLDTARKDLIKSEEMNTKLQRDVREAMAQKEDMEERITTLEKRYLAAQREATSVHDLNDKLENEIANKDSMHRQTEDKNRQLQERLELAEQKLQQTLRKAETLPEVEAELAQRVAALSKAEERHGNIEERLRQMEAQLEEKNQELQRARQREKMNEEHNKRLSDTVDKLLSESNERLQLHLKERMAALEDKNSLLREVESAKKQLEETQHDKDQLVLNIEALRAELDHMRLRGASLHHGRPHLGSVPDFRFPMADGHTDSYSTSAVLRRPQKGRLAALRDEPSKVQTLNEQDWERAQQASVLANVAQAFESDADVSDGEDDRDTLLSSVDLLSPSGQADAHTLAMMLQEQLDAINKEIRLIQEEKENTEQRAEEIESRVGSGSLDNLGRFRSMSSIPPYPASSLASSSPPGSGRSTPRRIPHSPAREVDRLGVMTLLPPSREEVRDDKTTIKCETSPPSSPRALRLDRLHKGALHTVSHEDIRDIRNSTGSQDGPVSNPSSSNSSQDSLHKAPKKKGIKSSIGRLFGKKEKGRPGQTGKEALGQAGVSETDNSSQDALGLSKLGGQAEKNRKLQKKHELLEEARRQGLPFAQWDGPTVVVWLELWVGMPAWYVAACRANVKSGAIMSALSDTEIQREIGISNPLHRLKLRLAIQEIMSLTSPSAPPTSRTTLAYGDMNHEWIGNEWLPSLGLPQYRSYFMECLVDARMLDHLTKKDLRGQLKMVDSFHRNSFQCGIMCLRRLNYDRKELERKREESQSEIKDVLVWSNDRVIRWILSIGLKEYANNLIESGVHGALLALDETFDFSALALLLQIPTQNTQARAVLEREFNNLLVMGTDRRFDEDDDKSFRRAPSWRKKFRPKDIRGLAAGSAETLPANFRVTSSMSSPSMQPKKMQMDGNVSGTQRLDSATVRTYSC

Variants of: B1
Details: with mtg8_human RUNX1T1, Q06455

| Variant | effect of a mutation on the interaction |
| --- | --- |
| R503Q | with no effect |

Variants of: B2
Details: with peg10_human PEG10, Q86TG7

| Variant | effect of a mutation on the interaction |
| --- | --- |
| P669A | with no effect |

Variants of: B3
Details: with pp1g_human PPP1CC

| Variant | effect of a mutation on the interaction |
| --- | --- |
| Q382E | with no effect |

Variants of: B4
Details: with txlna_human TXLNA

| Variant | effect of a mutation on the interaction |
| --- | --- |
| P389L | with no effect |

Variants of: B4
Details: with 2a5d_human PPP2R5D

| Variant | effect of a mutation on the interaction |
| --- | --- |
| P389L | with no effect |

Variants of: B4
Details: with ccnh_human CCNH

| Variant | effect of a mutation on the interaction |
| --- | --- |
| P389L | with no effect |
